Legend:
[1] = tested on: EcFadR (Escherichia coli); assay: SPR; conditions: SPR: 20 mM Tris-HCl pH 7.5, 200 mM NaCl, 0.005% Tween 20, 25 C, protein 31.25-1000 nM; EMSA: binding buffer composition not given, room temperature, 5 pmol …
[2] = tested on: ValFadR (Vibrio alginolyticus); assay: SPR; conditions: SPR: 20 mM Tris-HCl pH 7.5, 200 mM NaCl, 0.005% Tween 20, 25 C, protein 31.25-1000 nM; EMSA: binding buffer composition not given, room temperature, 5 pmol …

For fabA probe (SPR), the Kd [1] was 559 nM and the Kd [2] was 258 nM.

— PMC5733061
